The chains are these.
B1: target 1 C6G,A18U (mixed)
RNA 1: CACCCGUGCAAAAAUGCAGGGGUCUAAAACUGAGCGGAUAACCUCUCUAUGG
RNA 2: GGGAAUGGAUCCACAUCUACGAAUUCGUACCAUUGAGAGGUUAUCGGCUCACCGAGAUCGGAAGAGCACACGU
B2: target 1 C6G,A14U (mixed)
RNA 1: B1 RNA 1
RNA 2: B1 RNA 2 with U34A, A38U
B3: target 1 insC 3' of 22,insU 3' of 4 (mixed)
RNA 1: B1 RNA 1
RNA 2: GGGAAUGGAUCCACAUCUACGAAUUCGUACCCAUAGAGAGGUUAUCCGCUUCACCGAGAUCGGAAGAGCACACGU
B4: target 2 MT 5'PFS CUU 3'PFS UGU (mixed)
RNA 1: CACCCGUGCAAAAUUGCAGGGGUCUAAAACCUUCUCCAAAUUGUUUCAUCCU
RNA 2: GGGAAUGGAUCCACAUCUACGAAUUCCUUAGGAUGAAACAAUUUGGAGAAGUGUAGAUCGGAAGAGCACACGU
B5: target 2 MT 5'PFS GCC 3'PFS UUG (mixed)
RNA 1: B4 RNA 1
RNA 2: B4 RNA 2 with C27G, U28C, U29C, G53U, U54G
B6: target 2 MT 5'PFS CGA 3'PFS UGC (mixed)
RNA 1: B4 RNA 1
RNA 2: B4 RNA 2 with U28G, U29A, U54C
B7: target 2 MT 5'PFS AGA 3'PFS CUG (mixed)
RNA 1: B4 RNA 1
RNA 2: B4 RNA 2 with C27A, U28G, U29A, U52C, G53U, U54G
B8: target 2 MT 5'PFS AUA 3'PFS AGG (mixed)
RNA 1: B4 RNA 1
RNA 2: B4 RNA 2 with C27A, U29A, U52A, U54G
B9: target 2 MT 5'PFS AGA 3'PFS CUU (mixed)
RNA 1: B4 RNA 1
RNA 2: B4 RNA 2 with C27A, U28G, U29A, U52C, G53U
B10: target 2 MT 5'PFS GCA 3'PFS CAA (mixed)
RNA 1: B4 RNA 1
RNA 2: B4 RNA 2 with C27G, U28C, U29A, U52C, G53A, U54A
B11: target 2 MT 5'PFS AUA 3'PFS AGA (mixed)
RNA 1: B4 RNA 1
RNA 2: B4 RNA 2 with C27A, U29A, U52A, U54A
B12: target 2 MT 5'PFS ACU 3'PFS CAU (mixed)
RNA 1: B4 RNA 1
RNA 2: B4 RNA 2 with C27A, U28C, U52C, G53A
B13: target 2 MT 5'PFS AUA 3'PFS AGU (mixed)
RNA 1: B4 RNA 1
RNA 2: B4 RNA 2 with C27A, U29A, U52A
B14: target 2 MT 5'PFS ACU 3'PFS CAA (mixed)
RNA 1: B4 RNA 1
RNA 2: B4 RNA 2 with C27A, U28C, U52C, G53A, U54A
B15: target 2 MT 5'PFS ACU 3'PFS CAC (mixed)
RNA 1: B4 RNA 1
RNA 2: B4 RNA 2 with C27A, U28C, U52C, G53A, U54C
B16: target 2 MT 5'PFS CUU 3'PFS UGA (mixed)
RNA 1: B4 RNA 1
RNA 2: B4 RNA 2 with U54A
B17: target 2 MT 5'PFS GAG 3'PFS AUU (mixed)
RNA 1: B4 RNA 1
RNA 2: B4 RNA 2 with C27G, U28A, U29G, U52A, G53U
B18: target 2 MT 5'PFS GCC 3'PFS UUU (mixed)
RNA 1: B4 RNA 1
RNA 2: B4 RNA 2 with C27G, U28C, U29C, G53U
B19: target 2 MT 5'PFS CUU 3'PFS UGC (mixed)
RNA 1: B4 RNA 1
RNA 2: B4 RNA 2 with U54C
B20: target 2 MT 5'PFS GCA 3'PFS CAU (mixed)
RNA 1: B4 RNA 1
RNA 2: B4 RNA 2 with C27G, U28C, U29A, U52C, G53A
B21: target 2 MT 5'PFS GCA 3'PFS CAG (mixed)
RNA 1: B4 RNA 1
RNA 2: B4 RNA 2 with C27G, U28C, U29A, U52C, G53A, U54G
B22: target 2 MT 5'PFS CUG 3'PFS CGA (mixed)
RNA 1: B4 RNA 1
RNA 2: B4 RNA 2 with U29G, U52C, U54A
B23: target 2 MT 5'PFS GAG 3'PFS AUC (mixed)
RNA 1: B4 RNA 1
RNA 2: B4 RNA 2 with C27G, U28A, U29G, U52A, G53U, U54C
B24: target 2 MT 5'PFS CUG 3'PFS CGG (mixed)
RNA 1: B4 RNA 1
RNA 2: B4 RNA 2 with U29G, U52C, U54G
B25: target 2 MT 5'PFS GAC 3'PFS CUU (mixed)
RNA 1: B4 RNA 1
RNA 2: B4 RNA 2 with C27G, U28A, U29C, U52C, G53U
B26: target 2 MT 5'PFS GAG 3'PFS AUA (mixed)
RNA 1: B4 RNA 1
RNA 2: B4 RNA 2 with C27G, U28A, U29G, U52A, G53U, U54A
B27: target 2 MT 5'PFS UAA 3'PFS ACC (mixed)
RNA 1: B4 RNA 1
RNA 2: B4 RNA 2 with C27U, U28A, U29A, U52A, G53C, U54C
B28: target 2 MT 5'PFS ACU 3'PFS CAG (mixed)
RNA 1: B4 RNA 1
RNA 2: B4 RNA 2 with C27A, U28C, U52C, G53A, U54G
B29: target 2 MT 5'PFS GAC 3'PFS CUC (mixed)
RNA 1: B4 RNA 1
RNA 2: B4 RNA 2 with C27G, U28A, U29C, U52C, G53U, U54C
B30: target 2 MT 5'PFS UAA 3'PFS ACG (mixed)
RNA 1: B4 RNA 1
RNA 2: B4 RNA 2 with C27U, U28A, U29A, U52A, G53C, U54G
B31: target 2 MT 5'PFS UAA 3'PFS ACA (mixed)
RNA 1: B4 RNA 1
RNA 2: B4 RNA 2 with C27U, U28A, U29A, U52A, G53C, U54A
B32: target 2 MT 5'PFS GCC 3'PFS UUA (mixed)
RNA 1: B4 RNA 1
RNA 2: B4 RNA 2 with C27G, U28C, U29C, G53U, U54A
B33: target 2 MT 5'PFS GUC 3'PFS CCG (mixed)
RNA 1: B4 RNA 1
RNA 2: B4 RNA 2 with C27G, U29C, U52C, G53C, U54G
B34: target 2 MT 5'PFS GCC 3'PFS UUC (mixed)
RNA 1: B4 RNA 1
RNA 2: B4 RNA 2 with C27G, U28C, U29C, G53U, U54C
B35: target 2 MT 5'PFS GCA 3'PFS CAC (mixed)
RNA 1: B4 RNA 1
RNA 2: B4 RNA 2 with C27G, U28C, U29A, U52C, G53A, U54C
B36: target 2 MT 5'PFS UAA 3'PFS ACU (mixed)
RNA 1: B4 RNA 1
RNA 2: B4 RNA 2 with C27U, U28A, U29A, U52A, G53C

For 36 molecules, Kd results are on record in article PMC10786891, “Massively parallel profiling of RNA-targeting CRISPR-Cas13d”.

Residue numbers refer to the chain shown, from its start. Numbers in names are those of the source.

This series has as its target T1, EsCas13d, nuclease-dead (Eubacterium siraeum, UniProt B0MS50, R295A;H300A;R849A;H854A).
T1 sequence: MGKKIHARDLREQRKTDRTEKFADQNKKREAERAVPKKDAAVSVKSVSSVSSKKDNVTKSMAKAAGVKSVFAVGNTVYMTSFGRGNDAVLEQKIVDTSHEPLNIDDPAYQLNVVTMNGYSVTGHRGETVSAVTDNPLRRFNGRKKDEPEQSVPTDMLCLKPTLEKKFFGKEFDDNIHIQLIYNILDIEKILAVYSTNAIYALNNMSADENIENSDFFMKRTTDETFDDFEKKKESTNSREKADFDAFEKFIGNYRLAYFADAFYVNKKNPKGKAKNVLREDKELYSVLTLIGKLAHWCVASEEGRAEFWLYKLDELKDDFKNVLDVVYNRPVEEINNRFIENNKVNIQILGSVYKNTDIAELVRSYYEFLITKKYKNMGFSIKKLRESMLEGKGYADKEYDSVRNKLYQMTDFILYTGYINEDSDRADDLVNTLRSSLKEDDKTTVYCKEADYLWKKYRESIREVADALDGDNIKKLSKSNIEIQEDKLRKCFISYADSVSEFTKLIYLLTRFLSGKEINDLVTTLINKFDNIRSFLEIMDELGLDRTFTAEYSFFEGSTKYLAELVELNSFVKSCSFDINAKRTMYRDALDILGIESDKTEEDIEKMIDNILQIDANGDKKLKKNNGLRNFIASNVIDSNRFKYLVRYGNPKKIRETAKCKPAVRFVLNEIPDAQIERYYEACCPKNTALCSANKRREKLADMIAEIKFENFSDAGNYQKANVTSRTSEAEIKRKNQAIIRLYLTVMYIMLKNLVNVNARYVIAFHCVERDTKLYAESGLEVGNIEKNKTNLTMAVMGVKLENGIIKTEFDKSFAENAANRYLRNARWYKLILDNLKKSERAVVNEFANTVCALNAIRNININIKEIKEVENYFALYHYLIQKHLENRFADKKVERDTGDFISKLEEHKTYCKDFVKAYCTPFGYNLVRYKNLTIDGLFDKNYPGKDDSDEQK
Description: crRNA (strand 1, pre-loaded); Mg2+; 40 mM Tris-HCl pH 7.5, 150 mM NaCl, 6 mM MgCl2, 1 mM DTT, 0.1% Tween-20, 0.2 mg/ml BSA; 25 C; 10 min per concentration, then washed. The following applies: tags: His6-TwinStrep-SUMO cleaved; N-terminal SNAP kept (SNAP-Surface 488); label: 3' end held by stalled T7 RNA polymerase.
Take B1: the affinity, expressed as Kd, was 29 ± 4 nM.
For B2, the dissociation constant (Kd) is 41 ± 14 nM.
Molecule B3 gave a Kd of 15.1 ± 1.6 nM.
B4 came in with a Kd of 4.26 ± 0.3 nM.
B5 yielded a dissociation constant Kd of 15.3 ± 2.1 nM.
Regarding B6, the Kd is 6.8 ± 1.5 nM.
B7 displayed a Kd of 5.9 ± 1.1 nM.
B8 came in with a dissociation constant Kd of 7.6 ± 1.1 nM.
With B9, binding was put at a Kd of 8.4 ± 1.2 nM.
B10 displayed a Kd of 7.7 ± 1.1 nM.
B11 registered an equilibrium dissociation constant (Kd) of 6.1 ± 1.1 nM.
As for B12, the Kd was 3.1 ± 0.5 nM.
As for B13, binding was put at a Kd of 26 ± 6 nM.
B14 showed a Kd of 3.7 ± 0.8 nM.
B15 came in with a Kd of 4.1 ± 0.6 nM.
As for B16, the Kd turned out to be 6.5 ± 2 nM.
Molecule B17 had a dissociation constant (Kd) of 5.6 ± 0.4 nM.
Molecule B18 came in with a dissociation constant Kd of 41 ± 11 nM.
The figure for B19 is 4.5 ± 0.9 nM; for B20 it is 8.8 ± 1.8 nM; for B21 it is 7.9 ± 1.5 nM.
To B22 belongs 3.4 ± 0.6 nM; to B23, 9.9 ± 1.4 nM; to B24, 2.31 ± 0.31 nM.
B25 had a dissociation constant (Kd) of 12.5 ± 1.3 nM.
For B26, the equilibrium dissociation constant (Kd) worked out at 4.8 ± 0.5 nM.
For B27, the Kd was determined as 24 ± 9 nM.
For B28, the Kd is 4.5 ± 0.5 nM.
The molecule B29 gave a Kd of 12.1 ± 1.3 nM.
B30 came in with a dissociation constant Kd of 8.8 ± 2.1 nM.
B31: binding was characterised by a dissociation constant (Kd) of 6 ± 1.2 nM.
B32: the dissociation constant Kd is 25 ± 7 nM.
The molecule B33 yielded an equilibrium dissociation constant (Kd) of 14.9 ± 1 nM.
B34 gave a dissociation constant (Kd) of 27 ± 7 nM.
With B35, binding was characterised by a dissociation constant (Kd) of 7.5 ± 1 nM.
Take B36: the Kd amounted to 9 ± 1.4 nM.
